T1: DFNB31_1, Q9P202
T1 sequence (Q9P202 135-233, limits assumed, looked up): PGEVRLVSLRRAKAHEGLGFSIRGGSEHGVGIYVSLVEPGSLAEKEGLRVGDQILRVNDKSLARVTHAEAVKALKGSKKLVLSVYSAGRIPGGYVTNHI

T2: HTRA3, P83110
T2 sequence (P83110 354-453, limits assumed, looked up): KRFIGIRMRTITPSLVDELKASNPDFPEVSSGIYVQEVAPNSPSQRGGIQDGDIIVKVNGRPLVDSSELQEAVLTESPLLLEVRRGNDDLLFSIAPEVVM

T3: MPP2, Q14168
T3 sequence (Q14168 180-250, limits assumed, looked up): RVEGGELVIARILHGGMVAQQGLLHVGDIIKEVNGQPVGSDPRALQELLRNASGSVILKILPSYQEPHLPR

T4: PDZRN3_1, Q9UPQ7
T4 sequence (Q9UPQ7 244-349, limits assumed, looked up): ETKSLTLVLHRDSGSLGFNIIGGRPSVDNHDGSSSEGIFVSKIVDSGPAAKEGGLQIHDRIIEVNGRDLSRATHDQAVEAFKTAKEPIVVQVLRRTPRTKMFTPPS

T5: APBA3_1, O96018
T5 sequence (O96018 389-490, limits assumed, looked up): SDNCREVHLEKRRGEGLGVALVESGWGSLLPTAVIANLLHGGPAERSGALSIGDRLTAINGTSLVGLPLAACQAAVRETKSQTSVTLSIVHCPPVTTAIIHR

T6: DLG3_2, Q92796
T6 sequence (Q92796 221-321, limits assumed, looked up): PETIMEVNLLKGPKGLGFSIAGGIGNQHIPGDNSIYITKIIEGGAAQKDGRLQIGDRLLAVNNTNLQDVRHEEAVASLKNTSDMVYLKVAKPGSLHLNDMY

T7: RADIL, Q96JH8
T7 sequence (Q96JH8 971-1071, limits assumed, looked up): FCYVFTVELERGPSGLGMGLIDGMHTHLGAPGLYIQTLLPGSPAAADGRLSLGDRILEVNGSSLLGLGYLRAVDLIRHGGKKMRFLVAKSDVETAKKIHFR

T8: MPDZ_12, O75970
T8 sequence (O75970 1857-1958, limits assumed, looked up): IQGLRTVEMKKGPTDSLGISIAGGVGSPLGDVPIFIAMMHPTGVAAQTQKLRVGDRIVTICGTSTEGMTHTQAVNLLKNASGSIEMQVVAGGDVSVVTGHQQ

T9: DFNB31_3, Q9P202
T9 sequence (Q9P202 811-907, limits assumed, looked up): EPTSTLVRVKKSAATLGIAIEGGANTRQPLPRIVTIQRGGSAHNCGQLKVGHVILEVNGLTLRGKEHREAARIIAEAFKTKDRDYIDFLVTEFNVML

T10: TIAM2, Q8IVF5
T10 sequence (Q8IVF5 885-986, limits assumed, looked up): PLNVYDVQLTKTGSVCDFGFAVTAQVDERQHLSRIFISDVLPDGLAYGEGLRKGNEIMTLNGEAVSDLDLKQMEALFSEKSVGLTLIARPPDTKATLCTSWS

T11: GRIP1_4, Q9Y3R0
T11 sequence (Q9Y3R0 467-571, limits assumed, looked up): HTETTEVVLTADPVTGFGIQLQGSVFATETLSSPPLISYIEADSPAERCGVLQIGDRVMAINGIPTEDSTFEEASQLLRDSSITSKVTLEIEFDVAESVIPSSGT


What was measured:
Experiment in all cases: holdup assay
Set-up in all cases: key: below the threshold = too weak to quantify, mostly under pKd 3.1 to 4
Details in all cases: plain residues with an end cap or a label only (N-terminal biotin on a linker: ttds)
DFNB31_1, Q9P202 = molecular target: T1, DFNB31_1, Q9P202
GORASP2, Q9H8Y8 = molecular target: GORASP2, Q9H8Y8
GRIP2_4, Q9C0E4 = molecular target: GRIP2_4, Q9C0E4
GRIP2_4, Q9C0E4, sequence (Q9C0E4 446-548): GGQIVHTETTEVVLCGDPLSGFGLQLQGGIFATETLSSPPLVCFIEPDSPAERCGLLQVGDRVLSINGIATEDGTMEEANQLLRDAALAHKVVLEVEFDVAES

IL16_3, Q14005 = molecular target: IL16_3, Q14005
IL16_3, Q14005, sequence (Q14005 1107-1207): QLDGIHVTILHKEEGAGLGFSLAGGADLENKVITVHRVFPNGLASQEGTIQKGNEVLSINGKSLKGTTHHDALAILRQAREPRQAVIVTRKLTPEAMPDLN

HTRA3, P83110 = molecular target: T2, HTRA3, P83110
MPP2, Q14168 = molecular target: T3, MPP2, Q14168
PDZRN3_1, Q9UPQ7 = molecular target: T4, PDZRN3_1, Q9UPQ7
NOS1, P29475 = molecular target: NOS1, P29475
NOS1, P29475, sequence (P29475 9-101): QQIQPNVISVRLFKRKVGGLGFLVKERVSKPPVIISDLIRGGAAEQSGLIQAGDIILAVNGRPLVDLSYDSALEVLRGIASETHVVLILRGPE

FRMPD3, Q5JV73 = molecular target: FRMPD3, Q5JV73
FRMPD3, Q5JV73, sequence (Q5JV73 12-100): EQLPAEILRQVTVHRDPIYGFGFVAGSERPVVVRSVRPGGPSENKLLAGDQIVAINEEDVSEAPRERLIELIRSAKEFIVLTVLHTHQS

APBA3_1, O96018 = molecular target: T5, APBA3_1, O96018
DLG3_2, Q92796 = molecular target: T6, DLG3_2, Q92796
IL16_4, Q14005 = molecular target: IL16_4, Q14005
IL16_4, Q14005, sequence (Q14005 1229-1329): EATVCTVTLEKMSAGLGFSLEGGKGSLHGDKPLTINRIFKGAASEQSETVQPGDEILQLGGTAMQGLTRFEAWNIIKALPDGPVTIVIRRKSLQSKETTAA

MAGI2_2, Q86UL8 = molecular target: MAGI2_2, Q86UL8
MAGI2_2, Q86UL8, sequence (Q86UL8 410-522): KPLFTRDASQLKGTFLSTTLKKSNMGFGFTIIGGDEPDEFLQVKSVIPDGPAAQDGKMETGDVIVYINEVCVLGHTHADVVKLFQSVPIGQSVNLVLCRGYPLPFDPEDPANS

PICK1, Q9NRD5 = molecular target: PICK1, Q9NRD5
PICK1, Q9NRD5, sequence (Q9NRD5 17-115): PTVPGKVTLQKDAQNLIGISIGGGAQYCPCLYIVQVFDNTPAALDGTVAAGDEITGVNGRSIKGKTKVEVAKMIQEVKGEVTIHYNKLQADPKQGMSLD

RADIL, Q96JH8 = molecular target: T7, RADIL, Q96JH8
TJP1_3, Q07157 = molecular target: TJP1_3, Q07157
TJP1_3, Q07157, sequence (Q07157 416-512): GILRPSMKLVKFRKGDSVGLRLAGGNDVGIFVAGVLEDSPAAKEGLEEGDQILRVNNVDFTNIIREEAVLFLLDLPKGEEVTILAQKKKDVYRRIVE

GRASP, Q7Z6J2 = molecular target: GRASP, Q7Z6J2
GRASP, Q7Z6J2, sequence (Q7Z6J2 96-193): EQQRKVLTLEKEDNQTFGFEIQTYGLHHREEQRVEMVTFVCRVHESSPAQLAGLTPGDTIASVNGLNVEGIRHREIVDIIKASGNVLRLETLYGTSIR

GRIP2_6, Q9C0E4 = molecular target: GRIP2_6, Q9C0E4
GRIP2_6, Q9C0E4, sequence (Q9C0E4 648-740): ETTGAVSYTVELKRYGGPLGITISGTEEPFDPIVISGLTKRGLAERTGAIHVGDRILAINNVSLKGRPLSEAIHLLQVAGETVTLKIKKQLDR

MPDZ_12, O75970 = molecular target: T8, MPDZ_12, O75970
GRID2IP_2, A4D2P6 = molecular target: GRID2IP_2, A4D2P6
GRID2IP_2, A4D2P6, sequence (A4D2P6 272-370): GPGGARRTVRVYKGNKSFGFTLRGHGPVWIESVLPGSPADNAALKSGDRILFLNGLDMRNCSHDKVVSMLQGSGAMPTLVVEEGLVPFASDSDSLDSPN

LNX1_2, Q8TBB1 = molecular target: LNX1_2, Q8TBB1
LNX1_2, Q8TBB1, sequence (Q8TBB1 371-470): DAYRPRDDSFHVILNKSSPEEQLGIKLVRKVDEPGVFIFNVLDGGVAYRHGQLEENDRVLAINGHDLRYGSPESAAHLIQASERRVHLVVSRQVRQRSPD

Inadl_9, Q8NI35 = molecular target: Inadl_9, Q8NI35
Inadl_9, Q8NI35, sequence (Q8NI35 1530-1615): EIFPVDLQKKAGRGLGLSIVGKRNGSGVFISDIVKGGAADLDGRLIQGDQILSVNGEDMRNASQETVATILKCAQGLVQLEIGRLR

DFNB31_3, Q9P202 = molecular target: T9, DFNB31_3, Q9P202
TIAM2, Q8IVF5 = molecular target: T10, TIAM2, Q8IVF5
GRIP1_4, Q9Y3R0 = molecular target: T11, GRIP1_4, Q9Y3R0
DLG5_1, Q8TDM6 = molecular target: DLG5_1, Q8TDM6
DLG5_1, Q8TDM6, sequence (Q8TDM6 617-713): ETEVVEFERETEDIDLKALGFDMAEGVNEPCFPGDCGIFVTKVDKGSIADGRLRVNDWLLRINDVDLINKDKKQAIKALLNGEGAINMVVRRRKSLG

Binder | pKd (DFNB31_1, Q9P202) | pKd (GORASP2, Q9H8Y8) | pKd (GRIP2_4, Q9C0E4) | pKd (IL16_3, Q14005) | pKd (HTRA3, P83110) | pKd (MPP2, Q14168) | pKd (PDZRN3_1, Q9UPQ7) | pKd (NOS1, P29475) | pKd (FRMPD3, Q5JV73) | pKd (APBA3_1, O96018) | pKd (DLG3_2, Q92796) | pKd (IL16_4, Q14005) | pKd (MAGI2_2, Q86UL8) | pKd (PICK1, Q9NRD5) | pKd (RADIL, Q96JH8) | pKd (TJP1_3, Q07157) | pKd (GRASP, Q7Z6J2) | pKd (GRIP2_6, Q9C0E4) | pKd (MPDZ_12, O75970) | pKd (GRID2IP_2, A4D2P6) | also measured
RHTTSTETAV [HPV30-E6, P36809] | 4.27 | below the threshold | 3.66 | below the threshold | below the threshold | below the threshold | 4.68 | 4.63 | 3.76 | below the threshold | 5.41 | below the threshold | 5.04 | below the threshold | below the threshold | below the threshold | 3.96 | 3.77 | below the threshold | below the threshold | pKd (LNX1_2, Q8TBB1): 3.67; pKd (Inadl_9, Q8NI35): below the threshold; pKd (DFNB31_3, Q9P202): below the threshold; pKd (TIAM2, Q8IVF5): below the threshold; pKd (GRIP1_4, Q9Y3R0): below the threshold; pKd (DLG5_1, Q8TDM6): below the threshold
RLQRRRETQV [HPV18-E6, P06463] | below the threshold | 3.89 | below the threshold | below the threshold | below the threshold | below the threshold | 4.82 | 3.71 | below the threshold | below the threshold | 5.46 | below the threshold | 5.16 | below the threshold | 3.28 | below the threshold | below the threshold | below the threshold | below the threshold | below the threshold | pKd (LNX1_2, Q8TBB1): below the threshold; pKd (Inadl_9, Q8NI35): below the threshold; pKd (DFNB31_3, Q9P202): below the threshold; pKd (TIAM2, Q8IVF5): below the threshold; pKd (GRIP1_4, Q9Y3R0): below the threshold; pKd (DLG5_1, Q8TDM6): below the threshold
SSLQSLETSV [ATP2B4, P23634] | 4.17 | 3.98 | below the threshold | below the threshold | 3.51 | below the threshold | 5.15 | 4.04 | below the threshold | below the threshold | 5.2 | below the threshold | 4.49 | 3.76 | 3.69 | below the threshold | 3.6 | below the threshold | 3.53 | below the threshold | pKd (LNX1_2, Q8TBB1): 3.7; pKd (Inadl_9, Q8NI35): below the threshold; pKd (DFNB31_3, Q9P202): below the threshold; pKd (TIAM2, Q8IVF5): below the threshold; pKd (GRIP1_4, Q9Y3R0): below the threshold; pKd (DLG5_1, Q8TDM6): below the threshold
KKYVDAETSL [SLC4A7, Q9Y6M7] | 3.98 | below the threshold | below the threshold | below the threshold | below the threshold | below the threshold | 4.57 | 3.58 | 3.58 | below the threshold | 3.91 | 3.53 | 3.77 | below the threshold | below the threshold | below the threshold | 3.73 | below the threshold | below the threshold | 4.02 | pKd (LNX1_2, Q8TBB1): below the threshold; pKd (Inadl_9, Q8NI35): below the threshold; pKd (DFNB31_3, Q9P202): below the threshold; pKd (TIAM2, Q8IVF5): below the threshold; pKd (GRIP1_4, Q9Y3R0): below the threshold; pKd (DLG5_1, Q8TDM6): below the threshold
